In paper PMC10562830:

Target: Chikungunya virus-like particles of the 37997 strain (chikungunya virus (strain 37997))

B1: 506.C01 (antibody, V domains shown)
VH: QVQLQESGPGLVKPSQTLSLTCTVSGGSISSDDYYWTWIRLPPGKGLEWIGYIFYTGGTYYNPSLKSRVTISLDRSKNQFSLKLSSVTAADTAVYFCARAPETYCSTTNCYKGYFDSWGQGTLVTVSS
VL: DIQMTQSPSSVSASVGDRVTITCRASQGISSWLGWYQQKPGKAPKLLIYAASSLQSGVPSRFSGSGSGTDFTLTISSLQPEDFATYYCQQANSFPRTFGQGTKVEIK
With B1 the FRNT neutralisation of CHIKV-37997 and CHIKV-LR 2006 on Vero cells, EC50 was under 10 ng/mL.
